The data set in a line: protease stability score; higher = more stable; yeast display proteolysis, trypsin and chymotrypsin.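 Further: relative to predicted unfolded state with 0 unfolded-like and 1 meaning tenfold more protease.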
In turn, “DEDKEIAEHNLRLLSHSRLTGDEESMHKLMDPNAKIDFNGREIHGMEWIEWLKNQLRLKHVHTEFKDSRIINGRMEVDVNLRLHLSINGKEVDFIIDVELISQKVDGRWIVRSEIYR” showed a protease stability score of 0.375.

“SEHDEDLENAWRVIKHSTETGDEETSRELIDPNARIDINGKDLHGREEISRIFSEWRVHHIEIKHVEHVGNKVHIDGHEDINVDGRRMETRIELIITKINGKWLVHSIRYI” gave a protease stability score of 0.53. “HEDEESMEHSIRRLIQAIETGDFHELTELADPHVKLTIGDKEYIGREQWEKTLRDLGIDHFDVKRSKLIGDYARVDGKVNVNGQFRDTTVIMKKVDGKWLIRSWHVH” showed a protease stability score of 1.91. To “SELDKVAEEHMEHFFHLYRTGDEDMTHELLDPHVRVSINGVETVGRELATKEVIDWVRKVKNVKTHIHHIEKINGKVIVDTRIHINGVDFRLVIWADKVNGRWHIREMEIR” belongs 1.36; to “DEEEKRIEEIARLIFKLWHTGDEEHFLRLADPHVRLNVDGRELHGRERVKHWLHELRHRVDHITDYKEKHKENQGEFFVQWGVLDVHVDGKNVRTRVRIEIVVIDGKINEVRIEVH”, 1.36.

“SEEEQKLRNMAKLTFKDLITGDEEHFEKLADPHTRFNVGNYERHGMRLHLEWYLEWLTRIKGLKLRLELHDVRVVDGRAISDTTLDVHIGDKHIHQDIKLLLVIVDGRIKELEIRFV” had a protease stability score of 1.22. To “SEEEEEAWRSTEKWTHSEKTGDFESLLRLADPNARVHVNGRELVGMETVIRRFIEHVERFKNIRIQHHTEHIEFYGDKVIIDSRLHISIGDKTITITIELVTTKFNGRWLLQEITIK” belongs 0.475; to “SEEDELDERLLKIMRHAFETGDEEIFMRLVDPHTRTEFNGQEVHGREHLHRWLKEILRTLGVKYVERKDIRAWDGRIHLEFEMHVNGRTLKLTVVVIFINGKLHEYSERIE”, 1.61; to “TEEEELSELILELTERMIKTGDEKTLHRLMDPNARTVIGDKQDHGMRTIFNIMEELSERIKNARFSLKHIDVDGDKVKIWSTLNYDGRRWEVEIVARKIDGQWRLEEFRIR”, 0.626. Take “SEIDEEIEKHFELYTHALHTGDEHVLRRLLDPDARLTVGDKTFHGREQVVKELSREIHELRVRDMEIKDEKLVGDKLHQDTRLQFKFNGKEHEIITNFIWLKVNGQWVIREVRYD”: the protease stability score came to 1.25. The sequence “HDKEKEDKEWIKRLLDTIETGDPEQFSHLADPNVKAEFENHDSVGMEEVFKILEHLRIDHVRMKDMRIQGDWVHLITEMDGTINGKKIILKSRIIALKVNGRWVLTSTSLK” came in with a protease stability score of 1.42.

For “SDEEEEVREYYEKWFHDVYTGDEDSFRDMLDPHVKVEINGKELHGRENAEKFEKRMGVDHLNIRRFHFWDGRLEIRGESEYGDKRFKTEIHAIKINGRWVVKLIRFE”, the protease stability score worked out at 0.761.

The sequence “SQEEEIVLHISQRLLRALSTGNEKEFEELLDPNARVSEIQGDKSYSHHGREEFLIFMREWFEKMGIKHFHIEHIDVQGNWVRVRGRITFNGREHDVNILILVIDGRVRSFTIEIK” yielded a protease stability score of 1.57. To “DEENNIVKLLFHLYVRAIETGDWKTLEKLADPNYRTIFDGKDLHGREHYMRWVRELRVEDIKLNHIHMQGDKLSIDGEIDVRVGDKETRFEVHIIAEKINGRWILRSSIID” belongs 1.82; to “SEDKEAFHRVMKLLLHAWRTGDEDREKELFDPNVRFIIGDKIIIGREEWLKLLRRIDHLEVDLDIKRLEVIGDKIKAEFRLHEILKIDGVEIHQEHEVRLHLHKINGRWIIERVHVE”, 0.845; to “DDLEHQARESLDLHTEARKTGDEDQLKNLIDPHVRIEQGDKHIHGMEMFIRHWHKLGADHSEFRLKHVRVIDGRVRIDGEMIIHINGRTISIEVHFNINKINGRWIITEIHIH”, 1.09. “SEHEELLERIAEFVMKSWITGNEELDERLADPDARSIVNGKHLHGRELHSEFLRKLLEQLRIHHIHMTDRRVFDGRAIEHSVVHGEIDGVKVTVEVHIRVVVINGRLKSLRIEIR” gave a protease stability score of 0.149.

For “DEDTRLEKEFLRILEEILKTGDEERLRRLVDPNTRLEVGDKRFHGWDAVHYMLRIFGIERIHFELTSRRRVNGRLELDGILRFNGRDHDTHIIIDKINGVWIVREERVE”, the protease stability score was found to be 2.19. To “HDLEETVRDMIHLLMTFVETGDEDSVHRLIDPHVRVEVGDKLTHGRQWVHLLIKRADVLEIRIEDMRIVGDKALIVSKYHIRIDGVFIVYNIDIYAEKIDGRWVTTEIKVD” belongs 1.71; to “DHEHEEFEENLEHFEHHMKTGDFELLLKLADPHVKIHVNGRDYHGWEELKRVLETLGISKVKVEFHRIHLINGVAFNDGKMEVNGVHTKTHYVAKKVNGRWFMRSMEMN”, 0.775; to “EEIIDLMERLAYLWHHWLTTGNEEMLSKFLDPHARIVIGDKIYHGREKIHEELRRHLERFDHIEFRLRHTEVQGNKIHNHGELKLRIGNYTVHYETRFELQIYDGKIHEFQVKID”, 1.73. In the case of “RDEEEYAHRVLELWRFILETGDEDTLYELADPNVRFKFLQGNKEIHRHGRERMVEEIRTRREELGVKHIHLEHVEVWNGVVHLRVVVHFNGKELRSRIIIVVIDGVIKEIEIREE”, the protease stability score was 1.04. In turn, “SDSDHDLEHLLELLMRAYETGNEEEIRRLVDPNARWDINGVELHGWKVMHKFLREMRPTRIRIIIDDSETIGDKMFVDGTIRLDVHIGDKLIHTERRSRLVHRKVDGKWTQTSVIID” registered a protease stability score of 0.68. “TEEDEELKRWFDHFLESMITGDEHQNTELFDPNVLIHINGRQLHGRESAKIFIKEIRYEEIEVTHVRKYGNYVISSGVVRVRINGQESTIKTEVIVLKVNGQWLIRFVRFE” displayed a protease stability score of 2.26. To “DEHKREMRILLQLWREFWLTGDWRNILKNADPDYRLTVNGRDFVGMELATEFLEIILRHLRVKHIILRHEELVDGVLHVEGEIDGNIDGKETIHENEINMFVYNGKIHEVELHLK” belongs 1.36; to “DEEDEASHLALRLLEFTMKTGDERVSKENFDPNVRIEINGVDLHGWEHLTRILREIRIHDVRIEHSEVQGEKLILHGRMHWRVNGRDIEVETQVHAIKVDGKWRTKRIHFD”, 1.49.

With “DEEHKETEDIAKYFWERFLTGDWKTFKEFADPHVKIDVDGVEHIGREEASKLMRDWDRRFKNVRHTERHHDVIDGKFELHGESNINGVHIKLDVRIVIVDGRLHSVHVEIDRR”, the protease stability score is 1.26. The figure for “DESEETAVRMFKHWIRMIETGDEDSLEELADPNVRLEVNGQEVHGRELFLRFFLEMRIKRVRLRHIETQGEKLIIHGELDGEINGRRQETRVIIIVRKVDGKWIIKSIRIE” is 2.76; for “HEEEELARKLVEILLNLLLTGDEDVIRHLLDPNARIHIDGQDNVGREEVIRVWRHWLEKFGIDHIEINRIHYQGEWLHIIGLVKVNGRERPLHIHLNVINGRLKHSEFRIR” it is 1.48.

Turning to “SEDEEKAERLSRKVVHDLLTGDFKSLLEMFDPNVRVNINGVNNHGRHFFWHELYDELRRLGVDKIEVDLRSLQVYGDKVVLEMELRVNGKKITVEIHMKKVDGRWHIKEVTHE”, the protease stability score is 1.04.

For the sequence “DHEEEIAQKAFTDWHHALLTGDWERHEEMFDPDVREDINGVDLHGRELIVKQVRRDLQDFGIKHFEIRIRRLSFQGNKVIFDGIIIFHVDGREERFHVRVLFRKINGVWYLHSRFLH”, the protease stability score is 1.06. Turning to “DEDSEVLSRILLHLTHHFSTGDFKEVTEMFDPHARAFVGDKELVGMELLRKFLHDLTKRLGVDHHDLRDDHIEIQGDKLRSEGKLRIDVNGREIKHHVHWILEKIDGRWVIREFRIV”, the protease stability score was 1.23. To “SELDEYMHRMMKWILEEEITGDEERFLHLADPHVRSRIDVGEWKWDHHGRDAIRVYREQVDHITHVKVSNFHVQGDKAISDVHEEVRVGDKHVIRRIEIIVIVIDGKVHSIELEIK” belongs 0.357; to “SELHEKLKRDMDILEELLLTGDWEKLLKYIDPHARLEIGDKEVHGREILSEVFRDVFERIKNARIHIEHSEAINGRFDIHSEWIVNGKNRRVHIETVVINGRVDKLYFEIRHR”, 1.05. In the case of “DDEEHDARRAVELHNEIERTGDEHEMHRFADPDVRIFIGDKELHGRETWSKYLSHVLERLGINHLHITIEHLHLQGNKMRLHGTIRMKIGDKRYEIHVEVYITKINGRWHLHTIRND”, the protease stability score was 0.363.

For the sequence “DEEHKHLREILRLMIEWLRTGDWEKIERNADPTTKMDYGEFKTHGREEYYRALMILIRHLGVDHITLHDFTFIDGKIYLDLIIHVNGQHERVTLEMHFVDGVIKRHHVREK”, the protease stability score stood at 0.566. “NEEEKLSEEWSDHLLHNLITGDEEMLKRFMDPHTWAESEVDGQDEKYHGREQALHMVYRVIHRLGFNHFHIHRHRVIGDKIHVELRIVVGDKEVDAHFETIIINGKVHRIRIHVTKR” returned a protease stability score of 0.323.

In turn, “REEEKNLHTQMRLFAHALWTGDEDEIHRNMDPHVRSDIDGRELVGREWMIRLIEELRIRHVHIRHFHLQGDKLHLDTISHVIVNGVEVDMHTRVDVEKVNGRWLITSIRFD” registered a protease stability score of 1.18. Sequence “DDKQRAYEELTRKTLEVIETGDERMIEEMLDPNVRIHIDGKHVHGMEEATRIFLHEFHHLGFKHFEFKSVIEVDEKLIVTGHMRVDGREVELRIVIWKVNGRWTTESIQIHRL” showed a protease stability score of 1.4.

“DEEEEEHRIAHELFIKTSQTGDEQESTEMMDPNVRVTIGNKHFVGREEVSKFFKEIRIKRVRFKRIRHINGKAEMEMHMHGEVNGRERELEIHVYIFKINGRWVIEEVRFH” gave a protease stability score of 1.64.

Sequence “SELDENVKRITDIFIHAILTGDEHKIRKLLDPHVRTVVDGVEYIGREWFAEWVKHMRIDDHRIKTIEIRNQGDYAHVHIHGRTLGEYDGKHSTVNMFIHMHFVKFDGKWFVHELNVHII” gave a protease stability score of 2.06. For the sequence “SEDEELAESFSRLFFEAEETGDEESLLEMADPNVRVHIDGREIHGREEWIKHLRTFGVERIRIHMRHVEIQGDKLRLDLIVHQGDKTVRIEITIKKVDGRWVVHSIHWS”, the protease stability score turned out to be 0.868. Sequence “DEEERHVRELLREWIESLFTGDEHRLMELADPHARSHIDGVDLHGRENMHRMIHELRITDMRIRRISVRLVGDFVDVRVDGESDIYFNGQRLHTQIDIVIISSKIDGKWVIEEVHHNIE” displayed a protease stability score of 0.763. To “SEDEDFMQKALKHDWELWETGDEEKIQKQADPHVRMDFDGVEYHGMELFSELLDRYLRKVKGLQIRLRHVHVKIINGQAIMDIDGTVNINGREIRLHIKIFNEKINGKWIHSSIRFEFR” belongs 1.21; to “TEEESQAREALLIVLELLRTGDWRSMEKYADPHTLQVFNGRHLHGRELFSDFLEEYERKLGVDRIRVHIHHLDVINGQLRVDTTIDYGDKHHRMIIIINKYDGRWELEQLRIT”, 0.341; to “DEDTHRLELVLDLWSFAMLTGDEETLTKLIDPNMRIEIGDKIAHGREKLHEMLREIRIQIHHVHLDDYRVYGNKITLHVHIRMTLHVDGRTIHTELKTEIIIHKIDGKWVFHKVRFE”, 1.28. To “DEEEEHLRKIMEEMTRANETGDFESWARNADPDYQLNVGDKRKHGREDWQEDLKRVDHLRLEVRIRRMRDVDGRIEVVGDLIIFIKVGEYEFESHSKVIIYIIKINGRWFIKSIEFL” belongs 1.

The values are drawn from the NTF2 design screens of Basanta et al. (2020).
